Experimental data taken from article doi:10.1101/2025.11.23.689978.
Where “and” joins values, the source holds several entries; their conditions need not be identical. Identical values can stand only once.

Columns and labels:
[1] = target: AimC_(ϕ106), purified (phage ϕ106 (of Bacillus inaquosorum strain KCTC 13429)); test: SEC-MALS
[2] = target: AimC_(BMbtp14), purified (phage BMBtp14 (B. cereus group phage)); test: SEC-MALS

Row | Substance | stoichiometry N [1] | stoichiometry N [2]
1 | AimC_(ϕ106), purified (natural protein) | 2 | 
2 | AimC_(BMbtp14), purified (natural protein) |  | 2 and 4
